Usually Kd stands for the concentration at which binding is half-saturated. Low readings indicate tighter binding, high ones weaker binding.

This assay deals with EphB4 receptor (UniProt P54760). In words: SPR.
Chain of UniProt P54760 (P54760 16-987): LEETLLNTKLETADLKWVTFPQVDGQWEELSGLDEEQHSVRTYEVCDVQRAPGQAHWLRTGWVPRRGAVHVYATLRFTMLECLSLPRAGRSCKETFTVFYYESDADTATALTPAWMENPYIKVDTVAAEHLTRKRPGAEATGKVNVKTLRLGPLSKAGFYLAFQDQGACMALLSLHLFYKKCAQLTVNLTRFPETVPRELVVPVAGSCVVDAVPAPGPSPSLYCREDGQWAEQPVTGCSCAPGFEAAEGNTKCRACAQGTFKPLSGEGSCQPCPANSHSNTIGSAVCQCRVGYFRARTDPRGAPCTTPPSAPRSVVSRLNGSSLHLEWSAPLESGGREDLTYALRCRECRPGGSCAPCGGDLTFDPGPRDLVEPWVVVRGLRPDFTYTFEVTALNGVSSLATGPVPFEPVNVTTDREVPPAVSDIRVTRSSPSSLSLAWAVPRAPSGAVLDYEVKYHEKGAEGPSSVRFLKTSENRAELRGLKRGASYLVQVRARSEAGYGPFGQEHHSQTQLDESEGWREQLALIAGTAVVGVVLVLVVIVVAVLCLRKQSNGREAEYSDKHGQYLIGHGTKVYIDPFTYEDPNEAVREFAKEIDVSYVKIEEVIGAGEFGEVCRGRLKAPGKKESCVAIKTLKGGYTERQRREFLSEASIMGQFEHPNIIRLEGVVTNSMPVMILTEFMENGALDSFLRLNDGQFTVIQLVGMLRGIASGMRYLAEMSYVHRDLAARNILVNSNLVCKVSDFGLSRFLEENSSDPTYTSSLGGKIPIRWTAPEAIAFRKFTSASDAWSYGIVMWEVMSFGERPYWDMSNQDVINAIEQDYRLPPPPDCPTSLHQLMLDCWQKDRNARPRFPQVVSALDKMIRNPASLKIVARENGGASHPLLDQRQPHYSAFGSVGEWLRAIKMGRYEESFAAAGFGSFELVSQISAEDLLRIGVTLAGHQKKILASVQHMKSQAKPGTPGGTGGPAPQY

Turning to cyclic peptide c(TNYL-RAW), the dissociation constant (Kd) came out at 4.4 nM.

These data come from paper PMC3445780.
